Measurements taken from the DeepSol protein solubility set.

Experiment: soluble on expression in E. coli; label from the status in PepcDB or PDB records

Soluble on expression in E. coli, not soluble:
MGSDKIHHHHHHLIQYAQAVMRHEAVAAIVAEIVARYQAIADDFELEASIMAAIEEELDQLPKLTFKNNDYLMAGFKARGEKLNAFLMTAVLNHEGIEATYGEPKSLGIVVTDHPNDAEVSRETYRNLATFRRPIGVLVVPGFYGYTSDDDIATFSRGGSDITGAILANGFHADLYENFTDVDGVAAADPRVVANPQMIREMTYREMRELSYGGFGVFHDEAILPAIAGQVPINLKNTNHPAAPGTMIVPEQHFVPKHAITGIVSSQHFGAIYLHRYLLNKEVGFTLKILQVLAHNGISYEHMPSGIDDLTIILDDRQLTEAKRKTICAEIQAAVHPDVLKWIDDYAIIMVVGEGMAQRTGLIQTILQPLATAGVHVSMINEGASQISLMLGTSRESANRAVKTIYNAFFIPINQRLEVH
MGSDKIHHHHHHLISTANITMQFGPEPLFENISAKFGNGNRYGLIGANGCGKSTFMKILSGALAPTSGNVSITPGLKVGTLSQDQFAFEQYTVIDAVIMGDVQLWKVKQERDAIYAKADMTEEDGMRVGDLESEFAEMDGYSAESRAGEILIEAGIEESFHYGPMSQVAPGWKLRVLLAQALFANPDILLLDEPTNNLDIHTISWLETELNKRKCTMIIISHDRHFLNAVCTHMADIDYGELRIYPGNYEYFLAQSSLLREQLLAGNAKKSAEIEELQDFVNRFGANASKAKQASSRAKRMDKIKLDEVKSSSRITPSIRFAAGKKMHRQALVLENLGHGFDGELLFQGGDLILEAGAKLAIIGENGVGKTTLLRCLVNELIHNEGTIKWSENASIGYCPQDSTSDFDNDLTIMEWMDQWRQPKHNDLMVRAMLGRLLFTEDDANKKAKNCSGGEKNRLIFGKLMMQDINVIIMDEPTNHMDMEAIEALNNALKDFEGTLIFVSHDREFVSSLATRIIDIKDKKLINFQGTFDEYLSSQADIMARQHA
MGSDKIHHHHHHLKEAILSPRFYTTDFKAIDRLEIDRNGLRDEFDWIRDEFAYDYNRTHFRRTDEFLQDFDDMPERDSFIDFLERSCTAEFSGCLLYAEMVKHLHDPTLRAIFKYMSRDEGRHAGFLNRTMADLNVALDLTVLQKRKKYTYFQPKFIFYSVYLSEKIGYSRYITIYRHLERNPQYCIHPIFKWFEQWCNDEYRHGEFFALLMRSQPEMLEGVNRRWIRFFLLAVYATMYLNDARRSNFYAALGLDWRDYDQTVIRLCNDIATQVYPETMNLDDPRFFAYMDKLVEYDRALRALESRKDPIAMAHSTRLKAAIALRLLAIYRLPTRKTTEAIRWKGLPGFPNYPGPNRPQRVVAAD
MGSDKIHHHHHHLMCCASRSVPRWPDNIFTEFLSPKRALGPEPCRPRMTPFWRAGQLCPSVQDRRVFSCEPPCAVFPRWRTMRRAYLLKQEVLPMKISVIGASRGIGRKVVEEALERGHSVTGMARSATSLGIDHAEFTAIDGDATNATDVTQAIDGADAVILTLGVPKDARVLKSTTLFSDATRTLITAMEEAGIKRLLTVTGFGAGDSKEKLSTPERLTQKAFLGRAYADKDLQEKLIRDSDLDWTIARPGILSDNRKSNAYKVLVEKETWRNGLINRSDVADFLVTAAEDESHIHKTPALQR
MGSDKIHHHHHHLNAAAQTTPEIRRPQLGWTMLETPRFLSETALLALAWPMLAKAPQGDGHPVMVLPGFATNDTMTVLLRSFLARLGYQVFPWDLGWNLDQHSAGENGEHLAARIDAIAAETGRKVSLVGWSLGGVIAREAARRDHGGLRQVVTLGSPFTGNPRATSLTSLYELLTGNKASSEKSAARYARGHHPLPVPSTAIFSRTDGITAWENCVSETDDRTENIEVHCSHFGFVANPGVFWAVADRLAQPEGQWRKFDPKGCFAAFYP
MGSDKIHHHHHHLSIARETGSILLIPSTTTLRRAFDFETTFNDSIQFVGEDLSRQLAEDLNASKITLTSCCAYRNLSTILFNDSRIIERIDGYFQNFRYFHPDSQKIVKKLFTFMDPVRKRVSFWNIIYWNIHPTNHRKKPEKSTVSIFSFVTFQLRVDEFLENVGISLTVRNARVIETNVANDDQALELPEEDAFAKTMMVGVHIRHGMDISMNSRNRIHGHVDTPIEYYKRAIQQISKIYENVAFIICSDNVAWARRNLKLGKETLHFFCPGPREVDMAILKSCDSVIISTGTFGWWSAYLNVNASPDVYYYKHWPAPGSVMEKMTNKTEYF
MGSDKIHHHHHHLYNNSANTQFTGKSIHFLPSCHSTNTEASLLIRAQKAVNGLIVITNEQTAGRGQQGNSWLSKADSNLTFSVIFFPEKLHLKDSFYLNIVSSLSIAKTVDELVPENIVKVKWPNDILLNNKKVCGILIENMLRGEHIHAVVMGIGVNVNHSDGNLPFAGAMSSEAAKTFHLQEVFTRICENLEPYYLMLEQGLFAELDALYLQNLYGLNEKKHFSDSEGNFTGTIQAVLPGGLLQVEKESGVIKQYTFKEVSLVK
MGSDKIHHHHHHMAAIGSYNITLLNRESIKENAAYPIADNVEVIALSGSLFEFYKKLKKQISSNNYDVVVVHNMGKLSLLCAFVPNIKKLVVLEHVSFISRPKKIQILSKFLYRNIDQVVTLTQNDKEQFDKFHSNVIVIPNFSPFSIASQPQNNGKQIVTIGRLTDQKNYIHLLQAWKKIYQSIPDWQLNIYGEGEQEEMLQDYIKQQSLKNVSLKGSTSNVKEVYEQSSFFVMSSKYEGLPMVLIEAQSFGLPIVSYNCPYGPSDVIRDSKNGFLVEDQNVDELAAAVLKVALSPQLLEQFSQSSLLNAKKYQPEQILKIWIEKVLEG
MGSDKIHHHHHHMAATFGPRIARADENGQGSEHVALSWQKMDASGWRSGEASPAALHSDHHCRRGFAMSTRDADDRREYYRIEDTLALEFRPAGAVEDGLESEPGATLFSLLSDLHLMDYESQHLLRHISERDRTLANYLKVMNKRIDLLGQVMVQSLLKEIGEPRKVSLSEGGVSFRHDRALPVGQLLVLRMVLLPQGFGLELRARVIHAQPHDDEFEIGTEFEALSDAQRQLLARHILQKQAQQRRLARAGQGPLGEPGQPSST
MGSDKIHHHHHHMAAVLLTGHGGPEKLVYRTDVKVPSPDPGEVLVEVSACGMNNTDVWVRQGAYGTEEDAAAVSTWRRQGNTLVFPRIQGTDTVGTIVSVGEGVSPERIGERVMVDFSIYNRDDDSLADIDYMGHGRDGGYAEYQTVPAENAHVVDTDMSDVELATFCCAYLTGEQMLERAGLKAGERVLVTGASGGVGSGIVQLARARGAIPYAVVGKGKEQAVLDIGAEAVITRGVADLPRAVAEVTGGQPIDVVADLVGGAIFNDLLRILRPEGRYTTAGAIAGPVVQLDLRTMYLKQLQLHGSSQGTRADFRRIVGYIEAKKIRPLVGGVYRLSDFHRAQADFVAKDFVGKLVVVPDAIAERQA
MGSDKIHHHHHHMADDQEKLLIDEEETVQIKDLNKVTTVNDTDLLLLDDGAASSNAITFKNFLDASKDKIFKGEGLDYFKQIIKSTIAEELAADKDFVEKIYAKITDKLINNDSTNISNLFSKIKSRLTDSISSATLSRSDHLLIMPSSDTIQKTPVPKHILGVPSNLAYGSITRSTTLYPSDYENNAIFINMEDNDDVTLIFSKSYDNSPVYLDIEIQVKINDNRMQKKSLKLQYSDETTYNRVYEIAGPRGLFTRIPIYKGWYVQKRASLYGDPVPDLLKL
MGSDKIHHHHHHMAEDQTVLAIDIGGSHVKIGLSTDGEERKVESGKTMTGPEMVAAVTAMAKDMTYDVIAMGYPGPVVHNKPLREPVNLGEGWVGYDYEGAFGRPVRIVNDALMQAIGSYNGGRMLFLGLGTGLGAAMIVENVAQPMEIAHLPYRKGKTYEHYVSEAYREKKGNAKWQKRVQDVVERLSAALEPDEVVIGGGNVERLENLPPKCRRGDNAMAFEGGFRLWKNADLIV
MGSDKIHHHHHHMAFNFGCLNSPETVSSALATRENSLGLAIDPFLAPVAMVATQDIVLRQYFRERIVLGQENLPMQGPVLLAPTHRSRWDALMLPMAAGRRVTGRDCRFMVTVDEMKGLQGWFLHRLGCFPVNQSKPSLTSLRYAIDLMADGQQVVVFPEGTINRTEKPIKLYQGLARLAQLAKSQNIDVQVVPVGLGYSEVIPKACGRASICFAEPMKVLETGREAVKSFNAELSEKMHAAEQAALHAVGRLKKAP
MGSDKIHHHHHHMAHVNTNGIQIEYEVFGKRTNPTIVLIAGNGAQLNFWESDFCEMLAQHNLQVIRFDNRDAGLSTKFDAAGIPDMSKIYQAAQEGKPIKTAYTLEDMADDVAGLLDALEIKKAHICGASMGGMIAQVFAYRHPLRICSLISIMSSTGNPNNPKISQETLEIVTATPPNQRGAYIEYTVHMWKKLWSKGFPFEEERAIRYTEESYDRCYYPQGAVRQNAALVANGDRRKYLSLLRVPTLVIHGTADPLIPVEAGKDTARTIPNAKLLLIEGMGHDMPKGTWKCIVEAIVSLVRDTSHSCWR
MGSDKIHHHHHHMAIACVFTRASCGVEAPRVTVEVHLSNGLPAFNLVGLPETSVKEAKERVRSALINAGFEFPQKRITVNLAPADLPKQGGRYDLPIAVGILAASNQVPAKALHQCEFVGGLALSGQIRPCSGLLPAIIAARNDQHHFFMPIENRHEAELVGYKHSYFVAHLQNLAAFLHGQAQLPLLDTLPEWIEEEIQAQSSLCMSDVIGQYQAKHGLEIAAAGGHNMLFIGPPGTGKSMLANRIIPLLPKLTYDEAIEVAAIHSVAGLHVKPQNFLNRPFRSPHHTSSSIALIGGGSHPKPGEISLAHRGILFLDEIAEFPRKVLDCLREPLETGQVEISRAAAKLTFLSRFQLIAAMNPSPCGDTERARSTPDQIQRYLSRLSGPFLDRFDLTVDVPKLPAGTLTQQHQPSESSVEIAKRVKQARDLQLSRSGVLNSELTPKQLKQDGAITQPDLAFLEQSVVSLGLSVRSFHRIQRVSRTIADLQQSPTTERSHIAQALGYRAMDRLLAKLNQQ
MGSDKIHHHHHHMAIAPTLNIPQAKFLAMQYKFKAYVAGFGSGKTWVGCGGICKGMWEHPKINQGYFAPTYPQIRDIFYPTVEEVAHDWGLNVKINEGNKEVHFYAGRQYRGTTICRSMEKPQTIVGFKIGNALIDELDVMPAKKAQLAWRKIIARMRYNVAGLRNGIDVTTTPEGFKFVYQQFAKAVRDKPSLSTLYGLVQASTFDNEKNLPPDYIPSLMESYPPELIKAYLRGQFTNLTSGTIYHQFDRKLNNCREEEQPGEPLYIGMDFNVGKMAGVVHVLRLGLPFAVTEIIKAYDTPDMIRIIKERFWLCDGHDYRKVREIYIYPDASGDSRKSSNASATDIAQLKQAGFNVVVNASNPPVKDRINAMNAMFCNGNGERRYKVNVKRCPVYTESLEQQVWGENGEPDKTADNDHPNDAGGYFIVKQFPIIKPTGKVTQLRM
MGSDKIHHHHHHMAIKILSVDDEQDLEALLTQYFRRKIRKGEYEFSFAHNGLEALRMMLDHPDFDIILSDINMPEMDGLTLLTKINEMRNPALKCIIVSAYGDMENIRTAMNHGAFDFATKPIDMEDLERTIEKAVEQISFIKEAQKEHHQLEEIQYDLNVAREIQQSILPKQFPPFPQYKQFDLYATMSAAKAVGGDFYDFFLVDDNHLGFTIADVSDKGIPAAIFMAISRTVIRATALRQLSPAVCMKESNDLLCRESVNGMFVTTFYAILNIHTGDVVYCNGGHNRPVWIRKNDKVSLLPMTGGMALGVVPGLAYKEQSLKLEAGDSLFLYTDGISEAMNLRNEQYGDIRLVEACSSVKNQSPKSMIEGISESVQSFVNGATQSDDITMLALTYKG
MGSDKIHHHHHHMAKIGRNEPCPCGSGKKYKRCCMSGVGKQQADFVDSIEQMLAMNPDLSMDELNIIAEHQSNKINTTPHKDFCGLAPGQVNNWLYAPFPELEGITINTPSDLSTSPVMRYLKLMLETALANGGQIKATAKGNLPAALVKEASAFLPEFAVAPFERAISISEFAGANEDKFNALHYCRVLAKIAGIFKLKSNKFHVSAWAKHQYQRAGLESFFPIMLETAVYKYNWGYFDLWENEIPLQHFWLFMLWRLQHHKSHERLVDEMIQAFPDLLNELYEEEYMSDRDKLAVLIESRFIHRFLQFFGFVMVDPRRVIDGKRVAAQVTCLRSMHETFNFRIE
